Target: T1, HLA-A*0201 molecules on TAP-deficient T2 cells (human)
T1 construct: Peptide-receptive class I molecule on T2 cells; also called HLA-A2.1; HLA-A2
Assay: T2 cell HLA-A*0201 stabilisation, 100 uM peptide, flow cytometry with mAb BB7.2; mean of 4 experiments ± SEM
Description: T2 cells were incubated with 100 μM of peptide in serum-free RPMI 1640 supplemented with 5 μg/ml of human β₂m (Fluka, Buchs, Germany) for 18 hrs at 37° C.

B1: ALK peptide p621-629 (SLTANMKEV) (peptide)
peptide: SLTANMKEV
notes: C-terminal portion of the protein; also called p621-29
FI (Fluorescence Index): 3.5 ratio (sample / irrelevant-peptide control)

— patent US20030157101A1, “Immunogenic ALK peptides” (priority 2001, published 2003)
